Substitutions are numbered along the chain they refer to. Values belong to the binder of their own block, whether it stands above or below them.
Key:
[1] = target: T1, human FcγRIIb extracellular domain with C-terminal His tag (human, UniProt P31994 43-217); experiment: ratio of SPR KDs, reference IL6R-B3/IL6R-L
T1 sequence (looked up): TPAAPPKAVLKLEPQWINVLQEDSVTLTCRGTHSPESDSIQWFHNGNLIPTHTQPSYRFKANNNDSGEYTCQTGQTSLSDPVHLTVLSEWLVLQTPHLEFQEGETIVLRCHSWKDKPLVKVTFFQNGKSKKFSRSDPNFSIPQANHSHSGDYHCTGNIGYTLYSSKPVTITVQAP

[2] = target: T2, human FcγRIIa type R (131Arg) extracellular domain with C-terminal His tag (human, UniProt P12318 34-217); experiment: ratio of SPR KDs, reference IL6R-B3/IL6R-L
T2 sequence (looked up): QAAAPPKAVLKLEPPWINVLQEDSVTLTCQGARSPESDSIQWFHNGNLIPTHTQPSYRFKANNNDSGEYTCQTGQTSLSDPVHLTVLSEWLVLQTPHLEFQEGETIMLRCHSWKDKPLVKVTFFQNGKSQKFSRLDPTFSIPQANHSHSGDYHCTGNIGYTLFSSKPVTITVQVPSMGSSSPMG

[3] = target: T1, human FcγRIIb extracellular domain with …; experiment: ratio of SPR KDs, FcγRIIaR over FcγRIIb
FcγRIIaR = target: T3, FcγRIIaR (human, UniProt P12318 34-217); experiment: SPR
T3 sequence (looked up): T2 sequence (looked up)

FcγRIIaH = target: T4, FcγRIIaH (human, UniProt P12318 34-217); experiment: SPR
T4 sequence (looked up): T2 sequence (looked up) with R134H

[4] = target: T5, human FcγRIIa type H (His131) extracellular domain with C-terminal His tag (human, UniProt P12318 34-217); experiment: SPR
T5 sequence (looked up): T2 sequence (looked up) with R134H

[5] = target: human FcγRIIIa type V (Val158) extracellular domain with C-terminal His tag (human, UniProt P08637 17-208); experiment: SPR
[6] = target: human FcγRIa extracellular domain with C-terminal His tag (human, UniProt P12314 16-292); experiment: SPR
[7] = target: T6, human FcγRIIa type R (Arg131) extracellular domain with C-terminal His tag (human, UniProt P12318 34-217); experiment: SPR
T6 sequence (looked up): T2 sequence (looked up)

[8] = target: T7, human FcγRIIb extracellular domain with C-terminal His tag (human, UniProt P31994 43-217); experiment: SPR
T7 sequence (looked up): T1 sequence (looked up)

[9] = target: T7, human FcγRIIb extracellular domain with …; experiment: SPR; remark: listed apart in the source
[10] = target: T7, human FcγRIIb extracellular domain with …; experiment: SPR; remark: listed apart in the source
[11] = target: T6, human FcγRIIa type R (Arg131) …; experiment: SPR; remark: listed apart in the source
[12] = target: T7, human FcγRIIb extracellular domain with …; experiment: SPR; remark: listed apart in the source
[13] = target: T8, FcγRIIb extracellular domain with C-terminal His tag (human, UniProt P31994 43-217); experiment: SPR
T8 sequence (looked up): T1 sequence (looked up)

[14] = target: T8, FcγRIIb extracellular domain with …; experiment: SPR; remark: listed apart in the source
[15] = target: T8, FcγRIIb extracellular domain with …; experiment: SPR; remark: listed apart in the source
[16] = target: FcγRIIIa type V extracellular domain with C-terminal His tag (human, UniProt P08637 17-208); experiment: SPR
[17] = target: T9, FcγRIIa type H extracellular domain with C-terminal His tag (human, UniProt P12318 34-217); experiment: SPR
T9 sequence (looked up): T2 sequence (looked up) with R134H

mouse FcγRIII = target: T10, mouse FcγRIII (mouse, UniProt P08508 31-215); experiment: SPR
T10 sequence (looked up): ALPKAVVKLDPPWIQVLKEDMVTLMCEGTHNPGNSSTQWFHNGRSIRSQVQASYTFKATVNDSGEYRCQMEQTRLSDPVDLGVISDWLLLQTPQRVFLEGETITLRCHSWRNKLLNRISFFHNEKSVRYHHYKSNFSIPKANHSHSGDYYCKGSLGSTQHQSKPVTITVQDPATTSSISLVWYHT

Chain of human FcγRIIIa type V (Val158) extracellular domain with C-terminal His tag (P08637 17-208 F176V): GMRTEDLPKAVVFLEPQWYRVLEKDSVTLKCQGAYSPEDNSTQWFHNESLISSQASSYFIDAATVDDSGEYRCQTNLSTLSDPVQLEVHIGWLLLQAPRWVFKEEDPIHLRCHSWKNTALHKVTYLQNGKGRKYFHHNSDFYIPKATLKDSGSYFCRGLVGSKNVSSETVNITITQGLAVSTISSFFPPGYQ
Chain of human FcγRIa extracellular domain with C-terminal His tag (P12314 16-292): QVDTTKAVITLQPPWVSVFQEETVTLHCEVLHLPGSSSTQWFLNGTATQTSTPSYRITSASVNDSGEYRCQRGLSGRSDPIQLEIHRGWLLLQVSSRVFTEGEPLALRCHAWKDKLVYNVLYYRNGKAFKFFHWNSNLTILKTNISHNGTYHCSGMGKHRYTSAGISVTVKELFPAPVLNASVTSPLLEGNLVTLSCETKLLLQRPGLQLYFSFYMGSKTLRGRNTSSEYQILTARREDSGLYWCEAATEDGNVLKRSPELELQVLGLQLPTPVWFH
Chain of FcγRIIIa type V extracellular domain with C-terminal His tag (P08637 17-208 F176V): as the sequence (P08637 17-208 F176V) above

B1: IL6R-BP478/IL6R-L (antibody)
heavy: QVQLQESGPGLVKPSETLSLTCAVSGHSISHDHAWSWVRQPPGEGLEWIGFISYSGITNYNPSLQGRVTISRDNSKNTLYLQMNSLRAEDTAVYYCARSLARTTAMDYWGEGTLVTVSSASTKGPSVFPLAPCSRSTSESTAALGCLVKDYFPEPVTVSWNSGALTSGVHTFPAVLQSSGLYSLSSVVTVPSSSLGTKTYTCNVDHKPSNTKVDKRVESKYGPPCPPCPAPDLLGDDSVFLFPPKPKDTLMISRTPEVTCVVVDVSDEDGEVKFNWYVDGVEVHNAKTKPREEQDNSTYRVVSVLTVLHQDWLNGKEYKCKVSNKALPRPIEKTISKAKGQPREPQVYTLPPSRDELTKNQVSLTCLVKGFYPSDIAVEWESNGQPENNYKTTPPVLDSDGSFFLYSKLTVDKSRWQQGNVFSCSVMHEALHNHYTQESLSLSP
light: not shown
KD (IIb) of parent polypeptide/KD (IIb) of altered polypeptide [1]: 161 | KD (IIaR) of parent polypeptide/KD (IIaR) of altered polypeptide [2]: 2 | KD (IIaR)/KD (IIb) [3]: 28

B2: IL6R-BP144/IL6R-L (antibody, human IgG1, kappa)
heavy: QVQLQESGPGLVKPSETLSLTCAVSGHSISHDHAWSWVRQPPGEGLEWIGFISYSGITNYNPSLQGRVTISRDNSKNTLYLQMNSLRAEDTAVYYCARSLARTTAMDYWGEGTLVTVSSASTKGPSVFPLAPSSKSTSGGTAALGCLVKDYFPEPVTVSWNSGALTSGVHTFPAVLQSSGLYSLSSVVTVPSSSLGTQTYICNVNHKPSNTKVDKKVEPKSCDKTHTCPPCPAPELLGDDSVFLFPPKPKDTLMISRTPEVTCVVVDVSHEDPEVKFNWYVDGVEVHNAKTKPREEQYNSTYRVVSVLTVLHQDWLNGKEYKCKVSNAALPAPIEKTISKAKGQPREPQVYTLPPSRDELTKNQVSLTCLVKGFYPSDIAVEWESNGQPENNYKTTPPVLDSDGSFFLYSKLTVDKSRWQQGNVFSCSVMHEALHNHYTQESLSLSP
light: not shown
Kd (FcγRIIaR): 5.9 µM

B3: IL6R-BP146/IL6R-L (antibody, human IgG1, kappa)
heavy: B2 heavy with L236Y
light: not shown
Kd (FcγRIIaH): 16 µM

B5: IL6R-BP198/IL6R-L (antibody, human IgG1, kappa)
heavy: B2 heavy with E235D, L236Y, D239G, H270D, P273G, A332K
light: not shown
KD (IIb) of parent polypeptide/KD (IIb) of altered polypeptide [13]: 15.7 ratio | KD (IIaR)/KD (IIb) [14]: 11 ratio | KD (IIaH)/KD (IIb) [15]: 102 ratio

B7: IL6R-BP248/IL6R-L (antibody, human IgG1, kappa)
heavy: B2 heavy with E235D, H270D, P273G, Y298D, A332R
light: not shown
Kd [16]: 4400 µM

B9: IL6R-BP245/IL6R-L (antibody, human IgG1, kappa)
heavy: B2 heavy with E235D, S269Q, H270D, P273G, Y298D, A328D, A332R
light: not shown
Kd [17]: 23 µM

Further lines, results first:

Kd [4]: 11 µM | Kd [5]: 25 µM | Kd [6]: 0.00019 µM | Kd [7]: 0.68 µM | Kd [8]: 0.015 µM | KD (IIaH)/KD (IIb) [9]: 748 | KD (IIaR)/KD (IIb) [10]: 46.1 | KD (IIaR) of parent polypeptide/KD (IIaR) of altered polypeptide [11]: 1.6 | KD (IIb) of parent polypeptide/KD (IIb) of altered polypeptide [12]: 211
B4: IL6R-BP568/IL6R-L (antibody, human IgG1, kappa)
heavy: B2 heavy with E235D, D239G, V266I, S269A, H270E, P273G, A328K
light: not shown

Kd [4]: 17 µM | Kd [5]: 39 µM | Kd [6]: 0.00021 µM | Kd [7]: 0.89 µM | Kd [8]: 0.014 µM | KD (IIaH)/KD (IIb) [9]: 1230 | KD (IIaR)/KD (IIb) [10]: 64.4 | KD (IIaR) of parent polypeptide/KD (IIaR) of altered polypeptide [11]: 1.2 | KD (IIb) of parent polypeptide/KD (IIb) of altered polypeptide [12]: 225
B6: IL6R-BP567/IL6R-L (antibody, human IgG1, kappa)
heavy: B2 heavy with E235D, D239G, V266I, S269A, H270E, P273G, Y298D, A328K
light: not shown

Kd [5]: 36 µM | Kd [6]: 0.015 µM
B8: IL6R-BP558/IL6R-L (antibody, human IgG1, kappa)
heavy: B2 heavy with V266I, S269G, H270E, P273G, E274D, A328K, A332R
light: not shown

Kd (mouse FcγRIII): 0.282 µM
B10: VH3/L(WT)-mIgG1 (antibody)
heavy: QVQLQESGPGLVKPSETLSLTCAVSGHSISHDHAWSWVRQPPGEGLEWIGFISYSGITNYNPSLQGRVTISRDNSKNTLYLQMNSLRAEDTAVYYCARSLARTTAMDYWGEGTLVTVSSAKTTPPSVYPLAPGSAAQTNSMVTLGCLVKGYFPEPVTVTWNSGSLSSGVHTFPAVLQSDLYTLSSSVTVPSSTWPSETVTCNVAHPASSTKVDKKIVPRDCGCKPCICTVPEVSSVFIFPPKPKDVLTITLTPKVTCVVVDISKDDPEVQFSWFVDDVEVHTAQTQPREEQFNSTFRSVSELPIMHQDWLNGKEFKCRVNSAAFPAPIEKTISKTKGRPKAPQVYTIPPPKEQMAKDKVSLTCMITDFFPEDITVEWQWNGQPAENYKNTQPIMDTDGSYFVYSKLNVQKSNWEAGNTFTCSVLHEGLHNHHTEKSLSHSPGK
light: not shown

From patent US20260217793A1 (Chugai, published 2026)
